No end group written: not given here. OP = not defined here
Biological target: monoclonal antibody depY (mouse)
Experiment: SPR

| Kd | Binder |
| --- | --- |
| 360 nM | PPYRM-{OP} (reading uncertain; also: printed as PPYRM-OP) [PPYRM-OP] |
| 12 nM | LYGLPR-{OP} (reading uncertain; also: printed as LYGLPR-OP) [LYGLPR-OP] |

— PMC6006506
